Laboratory results reported in US20250011363A1, “OPTIMIZED SHORTENED PEPTIDE THAT BINDS TO ACETYLCHOLINE RECEPTOR, AND USE THEREOF” (SKINMED CO., LTD., priority 2021, published 2025).

Target: acetylcholine receptor
Assay: SPR, receptor immobilized on CM5 chip, peptide 10 uM

Q: Which Binding affinity (RU) does the source give for RWVYKR [6mer-2-435] here?
A: 154 RU

Q: With KVLYKR [6mer-2-436] as the binder, how does the Binding affinity (RU) read?
A: 148 RU

Q: KQVCKK [6mer-2-437] was tested. Which Binding affinity (RU) did it give?
A: 121 RU

Q: RLLCRK [6mer-2-438] was tested. Which Binding affinity (RU) did it give?
A: 131 RU

Q: With KWFSKR [6mer-2-439] as the binder, how does the Binding affinity (RU) read?
A: 153 RU

Q: Which Binding affinity (RU) does the source give for KQLSKK [6mer-2-440] here?
A: 153 RU

Q: With KSQRKR [6mer-2-441] as the binder, how does the Binding affinity (RU) read?
A: 139 RU

Q: For RLVQKR [6mer-2-442], which Binding affinity (RU) is on record?
A: 139 RU

Q: RQYCRR [6mer-2-443] was tested. Which Binding affinity (RU) did it give?
A: 122 RU

Q: RQRLKK [6mer-2-444] was tested. Which Binding affinity (RU) did it give?
A: 141 RU

Q: Which Binding affinity (RU) does the source give for RLVCKR [6mer-2-445] here?
A: 145 RU

Q: Which Binding affinity (RU) does the source give for RQLQKK [6mer-2-446] here?
A: 153 RU

Q: Which Binding affinity (RU) does the source give for RVYTKK [6mer-2-447] here?
A: 139 RU

Q: RSFRRR [6mer-2-448] was tested. Which Binding affinity (RU) did it give?
A: 128 RU

Q: How did the Binding affinity (RU) turn out when RGRCRR [6mer-2-449] was run?
A: 154 RU

Q: For RQRYRK [6mer-2-450], which Binding affinity (RU) is on record?
A: 123 RU

Q: RGRCKK [6mer-2-451] was tested. Which Binding affinity (RU) did it give?
A: 148 RU

Q: Which Binding affinity (RU) does the source give for KGLYKR [6mer-2-452] here?
A: 146 RU

Q: With RLVRKK [6mer-2-453] as the binder, how does the Binding affinity (RU) read?
A: 141 RU

Q: RSVQKK [6mer-2-454] was tested. Which Binding affinity (RU) did it give?
A: 133 RU

Q: How did the Binding affinity (RU) turn out when RWYSKR [6mer-2-455] was run?
A: 135 RU

Q: For KSVTKR [6mer-2-456], which Binding affinity (RU) is on record?
A: 147 RU

Q: With RRVYKR [6mer-2-457] as the binder, how does the Binding affinity (RU) read?
A: 146 RU

Q: Which Binding affinity (RU) does the source give for RRFQRR [6mer-2-458] here?
A: 122 RU

Q: Which Binding affinity (RU) does the source give for KLFSRK [6mer-2-459] here?
A: 139 RU

Q: For RSQCRK [6mer-2-460], which Binding affinity (RU) is on record?
A: 139 RU

Q: KSVCRR [6mer-2-461] was tested. Which Binding affinity (RU) did it give?
A: 149 RU

Q: For KQICKR [6mer-2-462], which Binding affinity (RU) is on record?
A: 145 RU

Q: Which Binding affinity (RU) does the source give for KLLTRR [6mer-2-463] here?
A: 124 RU

Q: With KSFRKK [6mer-2-464] as the binder, how does the Binding affinity (RU) read?
A: 135 RU

Q: With KGVSKR [6mer-2-465] as the binder, how does the Binding affinity (RU) read?
A: 122 RU

Q: Which Binding affinity (RU) does the source give for RLLTRR [6mer-2-466] here?
A: 142 RU

Q: With KQYSRR [6mer-2-467] as the binder, how does the Binding affinity (RU) read?
A: 142 RU

Target: acetylcholine receptor
Assay: SPR, AchR on chip, peptide 10 uM

Q: With RQQQR [5mer-26] as the binder, how does the Binding affinity (RU) read?
A: 65 RU

Q: For RRFTK [5mer-326], which Binding affinity (RU) is on record?
A: 68 RU

Q: With KGYLR [5mer-27] as the binder, how does the Binding affinity (RU) read?
A: 67 RU

Q: How did the Binding affinity (RU) turn out when RVLCR [5mer-327] was run?
A: 86 RU

Q: Which Binding affinity (RU) does the source give for RLLSR [5mer-28] here?
A: 74 RU

Q: For RWVLK [5mer-328], which Binding affinity (RU) is on record?
A: 61 RU

Q: How did the Binding affinity (RU) turn out when KGFCR [5mer-29] was run?
A: 63 RU

Q: RRFCR [5mer-329] was tested. Which Binding affinity (RU) did it give?
A: 79 RU

Q: For KSQLR [5mer-30], which Binding affinity (RU) is on record?
A: 70 RU

Q: For RWQLR [5mer-330], which Binding affinity (RU) is on record?
A: 86 RU

Q: Which Binding affinity (RU) does the source give for RRLQR [5mer-31] here?
A: 65 RU

Q: For RGIQR [5mer-331], which Binding affinity (RU) is on record?
A: 79 RU

Q: For RQLSR [5mer-32], which Binding affinity (RU) is on record?
A: 75 RU

Q: RRYCR [5mer-332] was tested. Which Binding affinity (RU) did it give?
A: 85 RU

Q: Which Binding affinity (RU) does the source give for RRISK [5mer-33] here?
A: 59 RU

Q: For RVLQR [5mer-333], which Binding affinity (RU) is on record?
A: 67 RU

Q: How did the Binding affinity (RU) turn out when KRIRK [5mer-34] was run?
A: 82 RU

Q: For KRFYK [5mer-334], which Binding affinity (RU) is on record?
A: 64 RU

Q: Which Binding affinity (RU) does the source give for RWQYK [5mer-35] here?
A: 80 RU

Q: KSLTR [5mer-335] was tested. Which Binding affinity (RU) did it give?
A: 56 RU

Q: RRLQK [5mer-36] was tested. Which Binding affinity (RU) did it give?
A: 60 RU

Q: KSVSR [5mer-336] was tested. Which Binding affinity (RU) did it give?
A: 83 RU

Q: How did the Binding affinity (RU) turn out when RRLSR [5mer-37] was run?
A: 72 RU

Q: How did the Binding affinity (RU) turn out when KGRSR [5mer-337] was run?
A: 67 RU

Q: With RGYCK [5mer-38] as the binder, how does the Binding affinity (RU) read?
A: 53 RU

Q: With RWILR [5mer-338] as the binder, how does the Binding affinity (RU) read?
A: 61 RU

Q: With KQVSR [5mer-39] as the binder, how does the Binding affinity (RU) read?
A: 67 RU

Q: With KWVRK [5mer-339] as the binder, how does the Binding affinity (RU) read?
A: 87 RU

Q: For KSVCR [5mer-40], which Binding affinity (RU) is on record?
A: 67 RU

Q: With KGYRR [5mer-340] as the binder, how does the Binding affinity (RU) read?
A: 51 RU

Q: With KVISK [5mer-41] as the binder, how does the Binding affinity (RU) read?
A: 82 RU

Q: Which Binding affinity (RU) does the source give for RWYRR [5mer-341] here?
A: 52 RU

Q: RQRLR [5mer-42] was tested. Which Binding affinity (RU) did it give?
A: 83 RU

Q: Which Binding affinity (RU) does the source give for KVYQR [5mer-342] here?
A: 69 RU

Q: For KSFYR [5mer-43], which Binding affinity (RU) is on record?
A: 53 RU

Q: Which Binding affinity (RU) does the source give for KSFSR [5mer-343] here?
A: 60 RU

Q: How did the Binding affinity (RU) turn out when RSRTR [5mer-44] was run?
A: 59 RU

Q: KQFQR [5mer-344] was tested. Which Binding affinity (RU) did it give?
A: 52 RU

Q: How did the Binding affinity (RU) turn out when RVFQR [5mer-45] was run?
A: 86 RU

Q: RQQRR [5mer-345] was tested. Which Binding affinity (RU) did it give?
A: 86 RU

Q: For KRQCK [5mer-46], which Binding affinity (RU) is on record?
A: 76 RU

Q: For KGISK [5mer-346], which Binding affinity (RU) is on record?
A: 57 RU

Q: For KGVRR [5mer-47], which Binding affinity (RU) is on record?
A: 70 RU

Q: KRICR [5mer-347] was tested. Which Binding affinity (RU) did it give?
A: 78 RU

Q: Which Binding affinity (RU) does the source give for RVYLR [5mer-48] here?
A: 62 RU

Q: How did the Binding affinity (RU) turn out when KRQTK [5mer-348] was run?
A: 80 RU
